B1: rat L-PRX C-terminal region (amino acids 1036–1383) (domain or fragment, UniProt Q63425 1036-1383, looked up)
chain: EVELVTPGAQETEKVTSGVKPSGLQVSTTRQVVAEGQEGAQRVSSLGISLPQVELASFGEAGPEIAAPSAEGTVGSRIQVPQVMLELPGTQVAGGDLLVGEGIFKMPTVTVPQLELDVGLGHEAQAGETAKSEGGLKLKLPTLGAGGKGEGAEAQSPEAQHTFHISLPDVELTSPVSSHAEYQVVEGDGDGGHKLKVRLPLFGLARAKEGIETGEKVKSPKLRLPRVGFSQSESASGEGSPSPEEEEEGSGEGASGRRGRVRVRLPRVGLASPSKGSKGQEGDAASKSPVGEKSPKFRFPRVSLSPKARSGSKDREEGGFRVRLPSVGFSETAAPGSARIEGTQAAAI
notes: After TEV cleavage an additional N-terminal Ser residue is left; also called rPRX-C; source: E. coli BL21(DE3), purified (Ni-NTA in urea, TEV cleavage, second Ni-NTA, SEC)
B3: His-tagged rat β4-FNIII-3 (β4 integrin amino acids 1512–1602) (domain or fragment, UniProt Q64632 1512-1602, looked up)
chain: PDTPTRLVFSALGPTSLKVSWQEPQCDRALLGYSVEYQLLNGGEMHRLNIPNPGQTSVVVEDLLPNHSYVFRVRAQSQEGWGREREGVITI
notes: β4 integrin, third cytoplasmic fibronectin type III domain, rat, amino acids 1512-1602, synthetic gene in pJ401; No tag cleavage is described for this protein; the His tag is partly seen in the crystal structure; also called His-β4-FNIII-3; rFNIII-3; source: E. coli BL21(DE3), purified (Ni-NTA, SEC)

Columns and labels:
[1] = target: B3; experiment: SEC-MALS; with QELS; equimolar complex (145 μM each), Superdex 200 increase 3.2/300GL, 20 mM Tris, 150 mM NaCl, pH 7.4, ambient temperature; conditions: both partners purified
β4 integrin FNIII-3 = target: T1, β4 integrin FNIII-3 (Homo sapiens, UniProt P16144); experiment: ITC
T1 chain: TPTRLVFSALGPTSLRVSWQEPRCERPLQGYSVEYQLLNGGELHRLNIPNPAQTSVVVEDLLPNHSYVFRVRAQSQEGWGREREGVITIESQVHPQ

[2] = target: B1; experiment: ITC; 680 μM β4-FNIII-3 titrated into 68 μM PRX-C, 25°C, 20 mM HEPES, 150 mM NaCl, pH 7.5; conditions: both partners purified

B1
stoichiometry N [1]: 1

B2: periaxin C-terminal segment (protein)
chain: SGRRGRVRVRLPRVGLAAPSKASRGQEGDAAPKSPVREKSPKFRFPRVSLSPKARSGSGDQEEGGLRVRLPSVGFSETGAPGPARMEGAQAAAV
Kd (β4 integrin FNIII-3): 1700 nM

B3
Kd [2]: 1700 ± 100 nM
dH [2]: 6.2 ± 0.06 kcal/mol
stoichiometry N [2]: ~1

Reference: PMC6465933, “Direct Binding of the Flexible C-Terminal Segment of Periaxin to β4 Integrin Suggests a Molecular Basis for CMT4F” (Frontiers in Molecular Neuroscience, 2019)
